Assay results reported in US20190367616A1.

Columns and labels:
[1] = target: cynomolgus PD-1 ECD (Acro Biosystems cat. no. PD1-05223) (cynomolgus) (UniProt B0LAJ3); test: SPR, antibody on sensor, monomeric PD-1 ECD in solution
[2] = target: human PD-1 expressed on CHO-S cells (human) (UniProt Q15116); test: flow cytometry PD-L1 blocking assay on CHO-S cells transiently expressing human PD-1; non-specific control antibody; ligand R-PE PD-L1-Fc (16.4 nM final)
Sequence of human PD-1 expressed on CHO-S cells (human) (Q15116 25-288): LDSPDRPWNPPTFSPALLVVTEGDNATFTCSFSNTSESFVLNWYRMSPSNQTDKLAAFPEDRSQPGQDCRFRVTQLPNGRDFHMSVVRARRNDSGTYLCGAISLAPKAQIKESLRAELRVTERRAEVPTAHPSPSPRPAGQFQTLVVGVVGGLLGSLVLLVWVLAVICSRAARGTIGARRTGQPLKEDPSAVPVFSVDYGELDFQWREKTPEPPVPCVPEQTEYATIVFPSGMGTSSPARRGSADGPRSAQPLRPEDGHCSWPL

Sequence of cynomolgus PD-1 ECD (Acro Biosystems cat. no. PD1-05223) (cynomolgus) (B0LAJ3 entry or part of it limits assumed): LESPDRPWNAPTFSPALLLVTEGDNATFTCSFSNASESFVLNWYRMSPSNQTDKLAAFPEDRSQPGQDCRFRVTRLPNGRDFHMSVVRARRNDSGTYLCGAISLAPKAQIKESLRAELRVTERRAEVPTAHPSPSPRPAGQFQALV

Row | Substance | Kd [1] | % of cells hu IgG binding negative / PD-L1 binding negative (lower left quadrant) [2] | % of cells hu IgG binding negative / PD-L1 binding positive (lower right quadrant) [2] | % of cells hu IgG binding positive / PD-L1 binding negative (upper left quadrant, 'blocking') [2]
1 | pembrolizumab/Keytruda (antibody) | 3.6 nM |  |  | 
2 | control mAb (antibody) |  | 66.5% | 32.6% | 0.28%
3 | nivolumab analogue (antibody) | 1.5 nM |  |  | 
